Experimental findings from patent US20200140562A1 are described below.

A value given as a limit tells only on which side of the number the result lay.

For assay [1], the target named is human OX40 on cells (CHO-hOX40, 293HEK-hOX40, Jurkat-hOX40, activated primary CD4+ T cells) (human) (UniProt P43489). The assay can be described thus: flow cytometry, 293HEK-hOX40, 1.6 nM.
Assay [2] has the same target. The assay can be described thus: flow cytometry, CHO-hOX40, 100 nM.
Assay [3] has the same target. The assay can be described thus: flow cytometry, activated CD4+ T cells, donor 2, 100 nM.
The target of assay [4] is cyno OX40_Fc (Acro Biosystems) (cyno). The assay can be described thus: BLI, IgG1 on tip, cyno OX40-Fc 100 nM, avid.
Assay [5] has as its target human OX40 on cells (CHO-hOX40, 293HEK-hOX40, Jurkat-hOX40, activated primary CD4+ T cells) (human) (UniProt P43489). The assay can be described thus: flow cytometry, 293HEK-hOX40, 8 nM. (In general: Flow cytometry measures light scatter and fluorescence of single cells or particles in a stream.)
Assay [6] has the same target. The assay can be described thus: flow cytometry, 293HEK-hOX40, 40 nM.
Assay [7] concerns the target human OX40_Fc (R&D Systems) (human) (UniProt P43489). The assay can be described thus: BLI, IgG1 on tip, hOX40-Fc 50 nM, avid. Background: BLI is a label-free optical method that tracks binding on a fibre tip over time.
Assay [8] addresses human OX40 on cells (CHO-hOX40, 293HEK-hOX40, Jurkat-hOX40, activated primary CD4+ T cells) (human) (UniProt P43489). The assay can be described thus: flow cytometry, CHO-hOX40, 100 nM blocker, competitor OX40L-hFc-fluorescein.
The target is the same in assay [9]. The assay can be described thus: flow cytometry, 293HEK-hOX40, 200 nM.
For assay [10] the target is unchanged. The assay can be described thus: cell-based or functional assay.

Chain of human OX40 on cells (CHO-hOX40, 293HEK-hOX40, Jurkat-hOX40, activated primary CD4+ T cells) (human) (P43489 29-277): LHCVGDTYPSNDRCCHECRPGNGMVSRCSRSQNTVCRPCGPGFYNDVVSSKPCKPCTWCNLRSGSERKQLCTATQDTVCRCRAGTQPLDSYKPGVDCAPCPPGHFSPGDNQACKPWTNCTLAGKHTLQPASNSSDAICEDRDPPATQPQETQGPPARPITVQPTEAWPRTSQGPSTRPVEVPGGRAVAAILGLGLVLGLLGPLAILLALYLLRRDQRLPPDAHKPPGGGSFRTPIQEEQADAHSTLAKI
Chain of human OX40_Fc (R&D Systems) (human) (P43489 29-216): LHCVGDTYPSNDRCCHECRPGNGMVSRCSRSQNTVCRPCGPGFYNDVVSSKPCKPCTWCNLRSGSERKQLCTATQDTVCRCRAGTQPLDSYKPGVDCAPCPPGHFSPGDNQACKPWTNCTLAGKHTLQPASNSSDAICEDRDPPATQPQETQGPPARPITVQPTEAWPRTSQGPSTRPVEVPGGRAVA

Take 11D4, IgG1 OX40 antibody: the MFI came out at 613000 MFI in assay [1]; 242000 MFI in assay [3]; 2.06e+06 MFI in assay [5]; 2.76e+06 MFI in assay [6]; 2.41e+06 MFI in [9]. Also, in assay [2], the CHO-OX40 binding intensity (MFI) was determined as 169000 MFI. The Kd (usually the free concentration of one partner at which half of the binding sites on the other are occupied at equilibrium, for simple one-to-one binding) was 5.95 nM in assay [4] and 0.613 nM in assay [7]. Moreover, in assay [8], the MFI of OX40L signal on CHO-OX40 cells was 36000 MFI.
Turning to pogalizumab, human IgG1 OX40 antibody, the blocking of OX40L-based activation (recombinant OX40L 60 ug/ml), NFkB-luciferase in Jurkat-hOX40 in assay [10] was greater than 0.08 nM.
